Our source for the MC4R cAMP EC50, MC1R cAMP EC50 and IC50 values is US20210221867A1, “Compounds Capable of Binding to Melanocortin 4 Receptor” (Novo Nordisk A/S, priority 2018, published 2021).

For assay [1], the target named is human MC4 receptor (human) (UniProt P32245). The assay is described as follows: cell-based or functional assay.
Assay [2] addresses human MC1 receptor (human) (UniProt Q01726). The assay is described as follows: cell-based or functional assay.
Assay [3] has the same target. Description: SPA competition binding, displacement of 125I-NDP-α-MSH, BHK membranes with human MC1R.
Assay [4] addresses human MC4 receptor (human) (UniProt P32245). The assay is described as follows: SPA competition binding, displacement of 125I-NDP-α-MSH, BHK membranes with human MC4R. (Displacement assays read how much labelled ligand stays bound in the presence of the test substance.)

Positions of bridges follow the written chain, without caps; N, C: chain ends. Non-standard residues stand in square brackets, D forms with d. Nle = CCCC[C@H](N)C(=O)O

human MC1 receptor (human), sequence (Q01726 whole entry): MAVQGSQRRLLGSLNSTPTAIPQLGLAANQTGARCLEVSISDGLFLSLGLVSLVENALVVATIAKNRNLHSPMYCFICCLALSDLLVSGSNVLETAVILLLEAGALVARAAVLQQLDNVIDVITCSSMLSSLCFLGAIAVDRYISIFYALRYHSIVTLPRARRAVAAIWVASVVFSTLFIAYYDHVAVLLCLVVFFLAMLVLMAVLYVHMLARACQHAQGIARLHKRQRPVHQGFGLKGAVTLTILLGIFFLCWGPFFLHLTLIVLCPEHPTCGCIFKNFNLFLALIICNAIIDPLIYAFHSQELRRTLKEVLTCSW
human MC4 receptor (human), sequence (P32245 whole entry): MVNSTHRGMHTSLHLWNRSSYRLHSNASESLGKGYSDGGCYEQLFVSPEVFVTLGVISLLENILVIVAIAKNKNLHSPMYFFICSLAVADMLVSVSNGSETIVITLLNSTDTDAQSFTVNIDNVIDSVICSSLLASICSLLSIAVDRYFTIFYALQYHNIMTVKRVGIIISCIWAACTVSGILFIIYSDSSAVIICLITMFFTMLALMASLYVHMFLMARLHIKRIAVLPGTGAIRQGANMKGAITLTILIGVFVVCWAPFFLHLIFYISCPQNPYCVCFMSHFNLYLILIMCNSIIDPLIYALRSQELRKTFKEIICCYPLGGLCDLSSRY

B1: Ac-D-Arg-c[Cys-Pro-His-D-Phe-His-Trp-Cys]-Pro-Pro-D-Arg-Glu-Nle-D-Arg-D-Arg-NH2 (peptide)
peptide: Ac-[dR]CPH[dF]HWCPP[dR]E[Nle][dR][dR]-NH2
modifications: disulfide 2-8
SMILES: CCCC[C@H](NC(=O)[C@H](CCC(=O)O)NC(=O)[C@@H](CCCNC(=N)N)NC(=O)[C@@H]1CCCN1C(=O)[C@@H]1CCCN1C(=O)[C@@H]1CSSC[C@H](NC(=O)[C@@H](CCCNC(=N)N)NC(C)=O)C(=O)N2CCC[C@H]2C(=O)N[C@@H](Cc2c[nH]cn2)C(=O)N[C@H](Cc2ccccc2)C(=O)N[C@@H](Cc2c[nH]cn2)C(=O)N[C@@H](Cc2c[nH]c3ccccc23)C(=O)N1)C(=O)N[C@H](CCCNC(=N)N)C(=O)N[C@H](CCCNC(=N)N)C(N)=O
With B1, the MC4R cAMP EC50 in assay [1] was 0.32 nM. Besides, in assay [2], the MC1R cAMP EC50 stood at 126 nM. In addition, the half-maximal inhibitory concentration (IC50) (as a rule, the concentration that gives 50% inhibition) in assay [3] was determined as 44.1 nM; in assay [4] it was 0.35 nM.

B2: Ac-c[Cys-Pro-His-D-Phe-His-Trp-Cys]-Pro-Pro-D-Arg-Glu-Nle-D-Arg-D-Arg-D-Arg-NH2 (peptide)
peptide: Ac-CPH[dF]HWCPP[dR]E[Nle][dR][dR][dR]-NH2
modifications: disulfide 1-7
SMILES: CCCC[C@H](NC(=O)[C@H](CCC(=O)O)NC(=O)[C@@H](CCCNC(=N)N)NC(=O)[C@@H]1CCCN1C(=O)[C@@H]1CCCN1C(=O)[C@@H]1CSSC[C@H](NC(C)=O)C(=O)N2CCC[C@H]2C(=O)N[C@@H](Cc2c[nH]cn2)C(=O)N[C@H](Cc2ccccc2)C(=O)N[C@@H](Cc2c[nH]cn2)C(=O)N[C@@H](Cc2c[nH]c3ccccc23)C(=O)N1)C(=O)N[C@H](CCCNC(=N)N)C(=O)N[C@H](CCCNC(=N)N)C(=O)N[C@H](CCCNC(=N)N)C(N)=O
With B2, the MC4R cAMP EC50 in assay [1] was 0.16 nM. Further, the IC50 in assay [3] amounted to 138 nM; in assay [4], 0.27 nM.

B3: Ac-D-Arg-c[Cys-Pro-His-D-Phe-His-Trp-Cys]-Pro-Pro-D-Arg-D-Arg-NH2 (peptide)
peptide: Ac-[dR]CPH[dF]HWCPP[dR][dR]-NH2
modifications: disulfide 2-8
SMILES: CC(=O)N[C@H](CCCNC(=N)N)C(=O)N[C@H]1CSSC[C@@H](C(=O)N2CCC[C@H]2C(=O)N2CCC[C@H]2C(=O)N[C@H](CCCNC(=N)N)C(=O)N[C@H](CCCNC(=N)N)C(N)=O)NC(=O)[C@H](Cc2c[nH]c3ccccc23)NC(=O)[C@H](Cc2c[nH]cn2)NC(=O)[C@@H](Cc2ccccc2)NC(=O)[C@H](Cc2c[nH]cn2)NC(=O)[C@@H]2CCCN2C1=O
The molecule B3 came in with an MC4R cAMP EC50 in assay [1] of 0.19 nM. In assay [2], this molecule came in with an MC1R cAMP EC50 of 179 nM. In addition, the IC50 is 69 nM in assay [3] and 0.39 nM in assay [4].
